Results taken from PMC8184817, “Transmission of light signals from the light-oxygen-voltage core via the hydrophobic region of the β-sheet surface in aureochrome-1” (Scientific Reports, 2021).
Where a chain is given by its changes, count along the chain named. Names may count otherwise.

Assays:
[1] = target: the molecule itself; experiment: SEC; light (L) state: 8 or 50 µM protein illuminated 2 min with blue light, column under continuous LED irradiation; Superdex 75, 400 mM NaCl, 20 mM Tris-HCl pH 7.0, 25 ± 1 °C, 0.5 mL/min; monomer to dimer
[2] = target: the molecule itself; experiment: SEC; dark (D) state: 8 or 50 µM protein incubated 20 min at 25 °C in the dark; Superdex 75 column, 400 mM NaCl, 20 mM Tris-HCl pH 7.0, 25 ± 1 °C, 0.5 mL/min; monomer to dimer
[3] = target: the molecule itself; experiment: dynamic light scattering (DLS); light (L) state: immediately after 1 min of blue light, 30-60 µM protein, 25 °C, hydrodynamic radius extrapolated to 0 µM protein; monomer to dimer
[4] = target: the molecule itself; experiment: dynamic light scattering (DLS); dark (D) state: 30-60 µM protein, 25 °C, hydrodynamic radius extrapolated to 0 µM protein; monomer to dimer

B1: Photozipper (PZ), N-terminally truncated aureochrome-1 of Vaucheria frigida, wild type (domain or fragment, UniProt A8QW55 113-348, looked up)
chain: GSISSELTEAQKVERRERNREHAKRSRVRKKFLLESLQQSVNELNHENNSLKESIREHLGPRGDSLIAQSSPEADTLLTDNPSKANRILEDPDYSLVKALQMAQQNFVITDASLPDNPIVYASRGFLTLTGYSLDQILGRNCRFLQGPETDPRAVDKIRNAITKGVDTSVCLLNYRQDGTTFWNLFFVAGLRDSKGNIVNYVGVQSKVSEDYAKLLVNEQNIEYKGVRTSNMLRRK
notes: aureochrome-1 of Vaucheria frigida (VfAUREO1), G113-K348 with C162S and C182S, encoded by the synthetic gene opZL; holds the bZIP and LOV domains; in the light (L) state FMN forms a covalent adduct with a conserved cysteine; also called wtPZ; source: recombinant protein
- binding result [1]: binds

B2: Photozipper (PZ) L208A mutant (domain or fragment, Vaucheria frigida, UniProt A8QW55 113-348, looked up)
chain: B1 chain with L96A
notes: aureochrome-1 of Vaucheria frigida (VfAUREO1), G113-K348 with C162S and C182S (opZL gene), plus L208A; also called L208L (as printed once); A'α mutant
- binding result [2]: binds

B3: Photozipper (PZ) V314A mutant (domain or fragment, Vaucheria frigida, UniProt A8QW55 113-348, looked up)
chain: B1 chain with V202A
notes: aureochrome-1 of Vaucheria frigida (VfAUREO1), G113-K348 with C162S and C182S (opZL gene), plus V314A; also called β-sheet mutant
- binding result [1]: binds

B4: Photozipper (PZ) V314I mutant (domain or fragment, Vaucheria frigida, UniProt A8QW55 113-348, looked up)
chain: B1 chain with V202I
notes: aureochrome-1 of Vaucheria frigida (VfAUREO1), G113-K348 with C162S and C182S (opZL gene), plus V314I; also called β-sheet mutant
- stoichiometry N [2]: 2

B5: Photozipper (PZ) L303A mutant (domain or fragment, Vaucheria frigida, UniProt A8QW55 113-348, looked up)
chain: B1 chain with L191A
notes: aureochrome-1 of Vaucheria frigida (VfAUREO1), G113-K348 with C162S and C182S (opZL gene), plus L303A; also called β-sheet mutant
- binding result [3]: binds

B6: Photozipper (PZ) L201A/L208A/L212A triple mutant (domain or fragment, Vaucheria frigida, UniProt A8QW55 113-348, looked up)
chain: B1 chain with L89A, L96A, L100A
notes: aureochrome-1 of Vaucheria frigida (VfAUREO1), G113-K348 with C162S and C182S (opZL gene), plus L201A, L208A and L212A; also called A'α mutant
- binding result [2]: binds

B7: Photozipper (PZ) N218A mutant (domain or fragment, Vaucheria frigida, UniProt A8QW55 113-348, looked up)
chain: B1 chain with N106A
notes: aureochrome-1 of Vaucheria frigida (VfAUREO1), G113-K348 with C162S and C182S (opZL gene), plus N218A; also called hinge mutant
- binding result [3]: binds

B8: Photozipper (PZ) V316A mutant (domain or fragment, Vaucheria frigida, UniProt A8QW55 113-348, looked up)
chain: B1 chain with V204A
notes: aureochrome-1 of Vaucheria frigida (VfAUREO1), G113-K348 with C162S and C182S (opZL gene), plus V316A; also called β-sheet mutant
- binding result [2]: binds

B9: Photozipper (PZ) F219V mutant (domain or fragment, Vaucheria frigida, UniProt A8QW55 113-348, looked up)
chain: B1 chain with F107V
notes: aureochrome-1 of Vaucheria frigida (VfAUREO1), G113-K348 with C162S and C182S (opZL gene), plus F219V; also called β-sheet mutant
- stoichiometry N [2]: 2

B10: Photozipper (PZ) L201A mutant (domain or fragment, Vaucheria frigida, UniProt A8QW55 113-348, looked up)
chain: B1 chain with L89A
notes: aureochrome-1 of Vaucheria frigida (VfAUREO1), G113-K348 with C162S and C182S (opZL gene), plus L201A; also called A'α mutant
- binding result [2]: binds

B11: Photozipper (PZ) Q217A mutant (domain or fragment, Vaucheria frigida, UniProt A8QW55 113-348, looked up)
chain: B1 chain with Q105A
notes: aureochrome-1 of Vaucheria frigida (VfAUREO1), G113-K348 with C162S and C182S (opZL gene), plus Q217A; also called hinge mutant
- binding result [3]: binds

B12: Photozipper (PZ) F299V mutant (domain or fragment, Vaucheria frigida, UniProt A8QW55 113-348, looked up)
chain: B1 chain with F187V
notes: aureochrome-1 of Vaucheria frigida (VfAUREO1), G113-K348 with C162S and C182S (opZL gene), plus F299V; also called β-sheet mutant
- binding result [3]: binds

B13: Photozipper (PZ) Q216A mutant (domain or fragment, Vaucheria frigida, UniProt A8QW55 113-348, looked up)
chain: B1 chain with Q104A
notes: aureochrome-1 of Vaucheria frigida (VfAUREO1), G113-K348 with C162S and C182S (opZL gene), plus Q216A; also called hinge mutant
- binding result [3]: binds

B14: Photozipper (PZ) L212A mutant (domain or fragment, Vaucheria frigida, UniProt A8QW55 113-348, looked up)
chain: B1 chain with L100A
notes: aureochrome-1 of Vaucheria frigida (VfAUREO1), G113-K348 with C162S and C182S (opZL gene), plus L212A; also called A'α mutant
- binding result [4]: binds
